Experimental data reported in patent publication CN116284368A.

Molecular target: T1, 临床全血样本裂解液中的MxA蛋白 (human) (UniProt P20591)
T1 sequence (looked up): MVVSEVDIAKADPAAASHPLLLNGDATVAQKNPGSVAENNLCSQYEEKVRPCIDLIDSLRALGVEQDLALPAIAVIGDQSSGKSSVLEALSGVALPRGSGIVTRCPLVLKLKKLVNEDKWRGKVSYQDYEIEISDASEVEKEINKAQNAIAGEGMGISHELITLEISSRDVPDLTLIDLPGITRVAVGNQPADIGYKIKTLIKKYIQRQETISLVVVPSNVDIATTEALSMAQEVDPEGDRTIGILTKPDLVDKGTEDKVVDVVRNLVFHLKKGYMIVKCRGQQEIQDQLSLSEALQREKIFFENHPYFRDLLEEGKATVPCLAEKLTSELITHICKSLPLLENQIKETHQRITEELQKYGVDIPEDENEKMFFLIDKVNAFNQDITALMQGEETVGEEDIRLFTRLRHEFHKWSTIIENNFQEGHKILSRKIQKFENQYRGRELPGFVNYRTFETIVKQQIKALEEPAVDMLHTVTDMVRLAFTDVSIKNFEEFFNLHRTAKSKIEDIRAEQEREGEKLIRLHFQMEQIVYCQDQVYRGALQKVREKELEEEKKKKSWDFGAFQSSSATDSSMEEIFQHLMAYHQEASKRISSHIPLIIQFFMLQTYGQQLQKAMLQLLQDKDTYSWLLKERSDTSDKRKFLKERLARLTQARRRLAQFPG
Assay: sandwich ELISA on clinical whole-blood lysates, antibody A coated (capture), antibody B-HRP detection

B1: 抗体B (MxA-B抗体) (antibody, V domains shown)
VH: QVQLQQSGAELARPGASVKLSCKASGYTFTSYWILWLKQRPGQGLEWIGAVYPGDGDTRYTQKFKGKATLTADKSSSTAYMQLSSLASEDSAVYYCARGYDNSFDYWGQGTTLTVSS
VL: DVLMTQTPLSLPVSLGDQASISCRTSQTIVHSNGNTYLEWYLQKPGQSPKLLIYKVSNRFSGVPDRFSGSGSGTDFTLKISRVEAEDLGVYYCFQGSHVPPTFGAGTKLELK
  OD450: > 0.6 OD450

B2: 抗体A (MxA-A抗体) (antibody, V domains shown)
VH: EVQLVETGGGLVQPKGSLIVSCAASGFTFNRSAMNWVRQAPGKGLEWVARIRTKSNNYATYYADSVKDRFTISRDDSQSMLYLQMNNLKTEDTAMYYCVGGSDFAYWGQGTLVTVSA
VL: DIQMTQTTSSLSASLGDRVTISCRASQDISNYLNWFQQKPDGTVKLLIYYTSRLYSGVPSRFSGSGSGTDYSLTITNLEQEDIATYFCQQGNTLPLTFGAGTKLELK
  OD450: > 0.6 OD450
